Data published in the supplement of paper PMC10899765.

Tests used:
Conditions in all cases: 20 nM; 72 h
MCF10A [1] = experiment: percent viability (nuclei count relative to siNT); higher = more viable cells
Protocol: (§1)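 After 72 h, cells were fixed and stained with Hoechst and anti-fibrillarin, and nucleoli per nucleus were counted with CellProfiler. Values are plate-adjusted percent effect for the one-nucleolus and 5+ nucleoli phenotypes, normalised to siNT (0%) and to the positive controls siNOL11 or siKIF11 (100%), as the mean of biological triplicates. Percent viability is the nuclei count relative to siNT.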

MCF10A [2] = experiment: 5+ nucleoli phenotype percent effect (relative to siNT 0% and siKIF11 100%); higher = more cells with five or more nucleoli
Protocol: as §1

MCF10A [3] = experiment: one-nucleolus phenotype percent effect (relative to siNT 0% and siNOL11 100%); higher = more cells with one nucleolus (ribosome biogenesis inhibition)
Protocol: as §1

| Sequence | percent viability (MCF10A [1]) | 5+ nucleoli phenotype percent effect (MCF10A [2]) | one-nucleolus phenotype percent effect (MCF10A [3]) |
| --- | --- | --- | --- |
| AGGUAGAAUGAGGCCUGACAU [hsa-miR-4650-3p] | 33.4% | -12.9% | 7.9% |
| AGGUAGACUGGGAUUUGUUGUU [hsa-miR-3529-5p] | 21.7% | -26.7% | 27.4% |
| AGGUCUGCAUUCAAAUCCCCAGA [hsa-miR-6503-5p] | 43.4% | 10.7% | 3.05% |
| AGGUGCUCCAGGCUGGCUCACA [hsa-miR-3907] | 4.87% | -22.2% | 27.7% |
| AGGUGGAUGCAAUGUGACCUCA [hsa-miR-3165] | 3.1% | -22.9% | 1.14% |
| AGGUGGGUAUGGAGGAGCCCU [hsa-miR-6769a-5p] | 14.3% | -16.7% | 39.6% |
| AGGUGGUCCGUGGCGCGUUCGC [hsa-miR-323a-5p] | 19.8% | -21.1% | 36.4% |
| AGGUGUGUCUGUAGAGUCC [hsa-miR-3650] | 19.8% | -24.7% | 45.8% |
| AGGUGUUAUCCUAUCCAUUUGC [hsa-miR-4694-5p] | 25.3% | -15.4% | 24.2% |
| AGGUUACCCGAGCAACUUUGCAU [hsa-miR-409-5p] | 21.8% | -20.6% | 42.3% |
| AGGUUCUGUGAUACACUCCGACU [hsa-miR-152-5p] | 22% | -38.1% | 65.8% |
| AGGUUGACAUACGUUUCCC [hsa-miR-563] | 70.5% | 46.2% | -18% |
| AGGUUGCCUGUGAGGUGUUCA [hsa-miR-656-5p] | 17.5% | -1.12% | 10.7% |
| AGGUUGGGAUCGGUUGCAAUGCU [hsa-miR-92a-1-5p] | 17.4% | -34% | 4.93% |
| AGGUUGUCCGUGGUGAGUUCGCA [hsa-miR-323b-5p] | 9.9% | 57.7% | -5.61% |
| AGGUUGUCCGUGUUGUCUUCUCU [hsa-miR-494-5p] | 22.3% | 18.5% | 3.91% |
| AGGUUGUCUGUGAUGAGUUCG [hsa-miR-410-5p] | 39.7% | 75.2% | -12.5% |
| AGUAGAGAGGAAAAGUUAGGGUC [hsa-miR-6832-5p] | 64.7% | 20.4% | -10.8% |
| AGUAUGUUCUUCCAGGACAGAAC [hsa-miR-567] | 56.1% | 34.9% | 8.77% |
| AGUAUUCUGUACCAGGGAAGGU [hsa-miR-630] | 68.7% | 49.7% | -15.1% |
